Test results taken from paper PMC3901395, “Multivalent interactions of the SUMO-interaction motifs in RING finger protein 4 determine the specificity for chains of the SUMO” (Biochemical Journal, 2013).

Target: T1, mono-SUMO2 (UniProt P61956 12-93)
T1 construct: SUMO2-ΔN11 monomer (first 11 residues missing) ending with the C-terminal GG motif and a stop codon; The methods describe the monomers from the pGEX-4T2 plasmids as ΔN11; also called SUMO2-ΔN11 monomer; source: E. coli Rosetta 2(DE3)pLysS, purified (glutathione beads, thrombin cleavage, anion exchange, SEC)
T1 sequence (P61956 12-93): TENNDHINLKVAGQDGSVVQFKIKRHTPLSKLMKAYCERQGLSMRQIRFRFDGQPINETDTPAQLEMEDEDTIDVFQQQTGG
Test: ITC; VP-ITC or ITC200; 25°C; ITC buffer (50 mM Tris/HCl, pH 7.5, 150 mM NaCl, 2 mM DTT, 5% glycerol); SUMOs titrated into a solution of the RNF4 construct or peptide (legends of Figures 1B, 2B); 20–30 injections up to 2–3-fold molar excess; values averaged from two to six titrations
Settings: both partners purified

B1: single PIAS1 peptide (peptide)
chain: KVEVIDLTIDSSSDEEEEEP
modifications: exact peptide ends are only in Figure 2A; limits set around the VIDLT core plus C-terminal acidic flank; termini unknown
Kd: 16 µM
